B1: BTN2A1 B30.2 domain (domain or fragment)
chain: EELRWRRTFLHAVDVVLDPDTAHPDLFLSEDRRSVRRCPFRHLGESVPDNPERFDSQPCVLGRESFASGKHYWEVEVENVIEWTVGVCRDSVERKGEVLLIPQNGFWTLEMHKGQYRAVSSPDRILPLKESLCRVGVFLDYEAGDVSFYNMRDRSHIYTCPRSAFSVPVRPFFRLGCEDSPIFICPALTGANGVTVPEEGLTLHRVGTHQSL
B2: BTN2A2 B30.2 domain, Q8WVV5 W374R; M506T (protein)
chain: EELRWRRTFLHAADVVLDPDTAHPELFLSEDRRSVRRGPYRQRVPDNPERFDSQPCVLGRESFASGKHYWEVEVENVMVWTVGVCRHSVERKGEVLLIPQNGFWTLEMFGNQYRALSSPERILPLKESLCRVGVFLDYEAGDVSFYNMRDRSHIYTCPRSAFTVPVRPFFRLGSDDSPIFICPALTGASGVTVPEEGLKLHRVGTHQSL

Legend:
[1] = molecular target: BTN3A1 B30.2 domain (human) (UniProt O00481)
[2] = molecular target: BTN3A1 B30.2 domain, O00481; test: ITC; conditions: chain shown with the change; with HMBPP
Chain of BTN3A1 B30.2 domain, O00481 (O00481 328-513): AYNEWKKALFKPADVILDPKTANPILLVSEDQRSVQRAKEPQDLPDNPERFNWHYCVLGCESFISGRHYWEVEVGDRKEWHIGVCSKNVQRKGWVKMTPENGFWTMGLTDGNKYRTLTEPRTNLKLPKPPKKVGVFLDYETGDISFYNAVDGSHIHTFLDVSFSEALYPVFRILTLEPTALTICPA

Chain of BTN3A1 B30.2 domain (human) (O00481 328-513): as above

Row | AFM-SCFS binding force between a Vγ9Vδ2 T cell and a MIA PaCa-2 cell, without and with HMBPP treatment [1] [pN] | Kd [2] [nM] | Binder
1 | 1550 |  | B1
2 |  | 189 | B2

— article PMC10533412, “Phosphoantigens glue butyrophilin 3A1 and 2A1 to activate Vγ9Vδ2 T cells” (Nature, 2023)
